Laboratory results reported in patent publication US6942963 (MIT, dated 2005).
Non-standard residues stand in square brackets, D forms with d.

Molecular target: β-amyloid peptide βAP1-42
Test: cell-based or functional assay

Chain of β-amyloid peptide βAP1-42 (peptide, as listed by the source): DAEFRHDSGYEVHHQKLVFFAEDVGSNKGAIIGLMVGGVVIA

## H-[dT][dP][dI][dR][dT][dP][dA][dP][dA]-OH [decoy peptide DP16 (+NH3.T.P.I.R+.T.P.A.P.A.COO-)]
  decrease in aggregation rate of βAP1-42, light scattering at 500 nm, DP16 at 1:1 molar ratio: ~50%
